Laboratory results taken from US20200384079A1, “Compositions of Fibroblast Growth Factor LIgands and Methods of Treating Patients Undergoing Ischemia-Reperfusion Therapy” (University of Cincinnati, priority 2017, published 2020).
Entries after “also recorded” stand apart in the source; their conditions may differ.

B1: FGF1^ΔHBS: FGF1 mutant carrying the K127D/K128Q/K133V triple mutation in its HS-binding region; reduced heparin-binding affinity (protein)
chain: MAEGEITTFTALTEKFNLPPGNYKKPKLLYCSNGGHFLRILPDGTVDGTRDRSDQHIQLQLSAESVGEVYIKSTETGQYLAMDTDGLLYGSQTPNEECLFLERLEENHYNTYISKKHAEKNWFVGLDQNGSCVRGPRTHYGQKAILFLPLPVSSD

Experiments:
wildtype mouse hearts = test: Ex vivo model, low-flow ischemia and reperfusion; conditions: 10 μg immediately at reperfusion; 60 minutes low-flow ischemia, 60 minutes reperfusion
Text: FIGS. 12A-12B. […] Left bar is vehicle-treated and right bar is FGF2-treated wildtype mouse hearts.

[1] = Pharmacokinetic evaluation after intraperitoneal dose (serum ELISA); format: in vivo, rat; conditions: single intraperitoneal dose 0.5 mg/kg
Experimental: CVR-2016-799R1 signaling and the other two sets were to evaluate the pharmacokinetic properties of native FGF1 and modified FGF1 (FGF1^ΔHBS). The first set of experiments was for the ischemia/reperfusion study in which animals were divided into six groups as follows: (1) saline group: saline treatment given intravenously for 10 minutes immediately upon reperfusion, (2) heparin group: heparin, 60 U/kg intravenous (i.v.) bolus, given immediately at reperfusion+12 U/kg/hr i.v. infusion for 120 minutes of reperfusion, (3) FGF1 group: FGF1, 10 μg/kg i.v. infusion, given for 10 minutes immediately at reperfusion, (4) FGF1+heparin: heparin, 60 U/kg bolus, given immediately upon reperfusion followed by FGF1, 10 μg/kg i.v. infusion, given for 10 minutes and 12 U/kg/hr i.v. infusion given for 110 minutes of reperfusion, (5) modified FGF1 (FGF1^ΔHBS) group: FGF1^ΔHBS, 10 μg/kg i.v. infusion, given for 10 minutes, or (6) FGF1^ΔHBS+heparin: heparin, 60 U/kg bolus, given immediately at reperfusion followed by FGF1^ΔHBS, 10 μg/kg i.v. infusion, given for 10 minutes and 12 U/kg/hr i.v. infusion for 110 minutes of reperfusion. All rats were subjected to 30 minutes of regional ischemia and 120 minutes of reperfusion. Drugs were administered at the onset of reperfusion via the jugular vein (FIG. 2A). […] A total of ninety-six rats was completed for the I/R study. Sample size for each group ranged from 9-16 depending on the power analysis. A total of thirty-five rats were excluded from the study based on the lack of cyanosis of the heart or typical elevation of the ST segment in the electrocardiogram during ischemia, and death from malignant arrhythmia. For the biodistribution or FGF1 signaling study, rats were randomly divided into six groups as described above (FIG. 2B). Following drug treatment (immediately following 15 minutes of treatment or 105 minutes post-treatment at the point which mimics the length of time of reperfusion), solid organs and blood (see sections “Tissue collection for exogenous FGF1 biodistribution” and “Cardiac preparation to detect the activation of FGF1 downstream molecules”) were collected. A total of 33 rats were used for biodistribution and FGF1 signaling studies, and 3 rats were excluded due to anesthetic overdose. Also, a total of 8 plasma samples were excluded because of hemolysis. For elimination half-life of native FGF1 and FGF1^ΔHBS, 12 rats were randomly divided into two groups and treated intraperitoneally with either FGF1 form as described in the section “Pharmacokinetic evaluation of exogenous FGF1 or FGF1^ΔHBS ”.
The in vivo half-life of FGF1 or FGF^ΔHBS (given as a single, intraperitoneal dose of
0.5 mg/kg body weight) was assessed, using the human FGF1 immunoassay ELISA kit (R&D System, MN), from blood (i.e., serum) collected at varying times as described previously. The pharmacokinetic parameters of FGF1 or FGF1^ΔHBS were analyzed using the Drug and […]

| Molecule | contractile function (+dP/dt) compared to vehicle (in words) (wildtype mouse hearts) | infarct size compared to vehicle (in words) (wildtype mouse hearts) | absorption phase half-life (in words) ([1]; non-compartmental) | elimination phase half-life (in words) ([1]; non-compartmental, 0.5 mg/kg) | area-under-curve (AUC), fold greater than FGF1 ([1]; serum) | maximum serum concentration (Cmax), fold greater than FGF1 ([1]; serum) | time to reach maximum serum concentration (Tmax) (in words) ([1]; 0.5 mg/kg) |
| --- | --- | --- | --- | --- | --- | --- | --- |
| FGF1: native recombinant human fibroblast growth factor 1 | significant enhancement of contractile function | significant reduction in infarct size | – | – | – | – | – |
| B1 | – | – | not significantly different from FGF1 | not significantly different from FGF1 | 2 fold | 4 fold | reached earlier than with FGF1; also recorded: relatively fast |
